B1: Azoarcus group I ribozyme (parent)
chain: GUGCCUUGCGCCGGGAAACCACGCAAGGGAUGGUGUCAAAUUCGGCGAAACCUAAGCGCCCGCCCGGGCGUAUGGCAACGCCGAGCCAAGCUUCGGCGCCUGCGCCGAUGAAGGUGUAGAGACUAGACGGCACCCACCUAAGGCAAACGCUAUGGUGAAGGCAUAGUCCAGGGAGUGGCGAAAGUCACACAAACCGG

Variants of: B1
Test: reverse-splicing fitness (ratio to wild type); higher = more active; in vitro selection; Mg2+ level not given
In short: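 An in vitro group I ribozyme library with randomized positions was T7-transcribed and gel-purified. In triplicate, 10 pmol RNA in EPPS pH 7.5 was reacted with 50 pmoles of a 30-nt RNA substrate for 1 h at 37 °C across several added MgCl2 levels (1–48 mM), then stopped with EDTA. Products were reverse transcribed from a substrate-complementary primer, PCR-amplified and sequenced (HiSeq 4000). Fitness is a variant's read proportion after selection over that before, normalised to wild type.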

Compared with C82U A111U A120G A145C U176C, C82U A111U A120G A145C U176G is lower in reverse-splicing fitness: 0.00925 for the first, 0.00374 for the second.

Compared with C82U A111U A120G A145C U176A, C82U A111U A120G A145C C169U U176C is higher in reverse-splicing fitness: 0.00965 for the first, 0.0108 for the second.

First: C82U A111U A120G A145C C169U U176G
Second: C82U A111U A120G A145C C169U U176A
The reverse-splicing fitness of the first is lower: 0.00376 for the first, 0.0194 for the second.

First: C82U A111U A120G A145U C150A C169U U176C
Second: C82U A111U A120G A145U C150A C169U U176G
The reverse-splicing fitness of the first is higher: 0.0141 for the first, 0.00425 for the second.

Compared with C82U A111U A120G A145U C150A C169U U176A, C82U A111U A120G A145C C150G C169A is lower in reverse-splicing fitness: 0.0203 for the first, 0.00779 for the second.

Compared with C82U A111U A120G A145C C150G C169U, C82U A111U A120G A145C C150G C169G is lower in reverse-splicing fitness: 0.00686 for the first, 0.0068 for the second.

Compared with C82U A111U A120G A145G C150U U176G, C82U A111U A120G A145G C150U U176C is higher in reverse-splicing fitness: 0.00569 for the first, 0.0171 for the second.

Compared with C82U A111U A120G A145G C150U U176A, C82U A111U A120G A145C C169G is higher in reverse-splicing fitness: 0.00911 for the first, 0.00962 for the second.

First: C82U A111U A120G A145C C169A
Second: C82U A111U A120G A145C C169U
The reverse-splicing fitness of the first is lower: 0.007 for the first, 0.00777 for the second.

Compared with C82U A111U A120G A145U C150G C169A, C82U A111U A120G A145U C150G C169U is higher in reverse-splicing fitness: 0.00759 for the first, 0.00779 for the second.

Going from C82U A111U A120G A145U C150G C169G to C82U A111U A120G A145G U176G, the reverse-splicing fitness falls from 0.00671 to 0.00453.

Going from C82U A111U A120G A145G U176A to C82U A111U A120G A145G U176C, the reverse-splicing fitness rises from 0.0127 to 0.0197.

Going from C82U A111U A120G A145C C150U U176G to C82U A111U A120G A145C C150U U176C, the reverse-splicing fitness rises from 0.00412 to 0.00906.

Compared with C82U A111U A120G A145C C150U U176A, C82U A111U A120G A145C C150A C169U U176A is higher in reverse-splicing fitness: 0.00859 for the first, 0.0189 for the second.

Compared with C82U A111U A120G A145C C150A C169U U176G, C82U A111U A120G A145C C150A C169U U176C is higher in reverse-splicing fitness: 0.00474 for the first, 0.00977 for the second.

Going from C82U A111U A120G A145G C150G C169G to C82U A111U A120G A145G C150G C169A, the reverse-splicing fitness rises from 0.00719 to 0.00888.

First: C82U A111U A120G A145G C150G C169U
Second: C82U A111U A120G A145U C150A C169A U176C
The reverse-splicing fitness of the first is lower: 0.0089 for the first, 0.0092 for the second.

First: C82U A111U A120G A145U C150A C169A U176G
Second: C82U A111U A120G A145U C150A C169A U176A
The reverse-splicing fitness of the first is lower: 0.00508 for the first, 0.0137 for the second.

Compared with C82U A111U A120G A145C C150U C169G U176A, C82U A111U A120G A145C C150U C169G U176G is lower in reverse-splicing fitness: 0.0216 for the first, 0.00484 for the second.

First: C82U A111U A120G A145C C150U C169G U176C
Second: C82U A111U A120G A145U C150G C169U U176G
The reverse-splicing fitness of the first is higher: 0.0111 for the first, 0.00463 for the second.

Compared with C82U A111U A120G A145U C150G C169U U176C, C82U A111U A120G A145U C150G C169U U176A is higher in reverse-splicing fitness: 0.0111 for the first, 0.0116 for the second.

Compared with C82U A111U A120G A145C C150G C169U U176A, C82U A111U A120G A145C C150G C169U U176G is lower in reverse-splicing fitness: 0.0142 for the first, 0.00495 for the second.

Going from C82U A111U A120G A145C C150G C169U U176C to C82U A111U A120G A145C C150G U176C, the reverse-splicing fitness falls from 0.0113 to 0.00719.

Going from C82U A111U A120G A145C C150G U176G to C82U A111U A120G A145C C150G U176A, the reverse-splicing fitness rises from 0.0024 to 0.00493.

Going from C82U A111U A120G A145G C150A C169G U176A to C82U A111U A120G A145G C150A C169G U176C, the reverse-splicing fitness rises from 0.0152 to 0.0253.

Compared with C82U A111U A120G A145G C150A C169G U176G, C82U A111U A120G A145G C150A C169U is higher in reverse-splicing fitness: 0.00481 for the first, 0.00848 for the second.

Going from C82U A111U A120G A145G C150A C169G to C82U A111U A120G A145G C150A C169A, the reverse-splicing fitness rises from 0.00828 to 0.0105.

First: C82U A111U A120G A145G C150A C169U U176G
Second: C82U A111U A120G A145G C150A C169U U176C
The reverse-splicing fitness of the first is lower: 0.00536 for the first, 0.0157 for the second.

Compared with C82U A111U A120G A145G C150A C169U U176A, C82U A111U A120G A145G C169G U176C is higher in reverse-splicing fitness: 0.0205 for the first, 0.027 for the second.

First: C82U A111U A120G A145G C169G U176G
Second: C82U A111U A120G A145G C169G U176A
The reverse-splicing fitness of the first is lower: 0.00377 for the first, 0.0214 for the second.

First: C82U A111U A120G A145U C150G C169A U176C
Second: C82U A111U A120G A145U C150G C169A U176G
The reverse-splicing fitness of the first is higher: 0.00812 for the first, 0.00439 for the second.

Going from C82U A111U A120G A145U C150G C169A U176A to C82U A111U A120G A145C C150U C169A U176C, the reverse-splicing fitness falls from 0.00889 to 0.00544.

Compared with C82U A111U A120G A145C C150U C169A U176G, C82U A111U A120G A145C C150U C169A U176A is higher in reverse-splicing fitness: 0.00482 for the first, 0.0102 for the second.

First: C82U A111U A120G A145G
Second: C82U A111U A120G A145U
The reverse-splicing fitness of the first is higher: 0.0162 for the first, 0.0147 for the second.

Compared with C82U A111U A120G A145C, C82U A111U A120G A145C C150A is lower in reverse-splicing fitness: 0.0134 for the first, 0.0064 for the second.

First: C82U A111U A120G A145C C150G
Second: C82U A111U A120G A145C C150U
The reverse-splicing fitness of the first is lower: 0.00668 for the first, 0.0086 for the second.

First: C82U A111U A120G A145G C150G C169G U176G
Second: C82U A111U A120G A145G C150G C169G U176C
The reverse-splicing fitness of the first is lower: 0.00498 for the first, 0.0107 for the second.

First: C82U A111U A120G A145G C150G C169G U176A
Second: C82U A111U A120G A145U C150G U176C
The reverse-splicing fitness of the first is higher: 0.00842 for the first, 0.00777 for the second.

Compared with C82U A111U A120G A145U C150G U176G, C82U A111U A120G A145U C150G U176A is higher in reverse-splicing fitness: 0.00302 for the first, 0.00538 for the second.

First: C82U A111U A120G A145U C150A C169G U176G
Second: C82U A111U A120G A145U C150A C169G U176C
The reverse-splicing fitness of the first is lower: 0.0044 for the first, 0.0136 for the second.

Compared with C82U A111U A120G A145U C150A C169G U176A, C82U A111U A120G A145G C150U C169U U176G is lower in reverse-splicing fitness: 0.0132 for the first, 0.00481 for the second.

First: C82U A111U A120G A145G C150U C169U U176A
Second: C82U A111U A120G A145G C150U C169U U176C
The reverse-splicing fitness of the first is higher: 0.0194 for the first, 0.014 for the second.
